Results as given in patent publication US20170073659A1 (MEDICINAL BIOCONVERGENCE RESEARCH CENTER, published 2017).

Target: T1, KRS WT-myc (C-terminus myc tagged KRS wild type) (human, UniProt Q15046 1-597)
T1 construct: Overexpressed in HCT116 cells and tested in lysate; The N-terminus may be cleaved in the cells under starvation; also called KRS-myc
Assay: anti-myc immunoprecipitation from starved cells, western blot for syntenin-1 (FIG. 3d)
Experimental: FIG. 3d illustrates results investigating the interaction between KRS and syntenin-1 using D12A mutant. C-terminus myc tagged KRS WT and D12A mutant were transfected and overexpressed in cells, and after 24 hr, the transfectants were incubated in serum starvation media for 1 hr, followed by precipitation using anti-myc antibody, and then KRS-bound syntenin-1 was monitored by western blot (mock: control with empty vector introduced into cells).
The cells were lysed with 50 mM Tris-HCl (pH 7.4) buffer containing 150 mM NaCl, 10 mM NaF, 12 mM beta-glycerophosphate, 1 mM EDTA, 1% NP-40, 10% glycerol, and protease inhibiting agent. Then, the supernatant was dissolved in SDS sample buffer, followed by separation using SDS-PAGE. For immunoblotting of endogenous KRS, anti-KRS antibody was used. Antibodies against Hsp90, syntenin-1, GFP, myc, caspase-3, -6, -8, -9, while syntenin-1 were purchased from Santa Cruz, and antibodies against alix were purchased from Cell Signaling. The anti-KRS antibody was manufactured by ordinary procedures in which KRS protein (Genbank Accession No. NP_005539.1) represented by SEQ ID NO: 2 was injected into New Zealand white rabbits to induce immune response and their antibodies were obtained. […]

T1 sequence (Q15046 whole entry): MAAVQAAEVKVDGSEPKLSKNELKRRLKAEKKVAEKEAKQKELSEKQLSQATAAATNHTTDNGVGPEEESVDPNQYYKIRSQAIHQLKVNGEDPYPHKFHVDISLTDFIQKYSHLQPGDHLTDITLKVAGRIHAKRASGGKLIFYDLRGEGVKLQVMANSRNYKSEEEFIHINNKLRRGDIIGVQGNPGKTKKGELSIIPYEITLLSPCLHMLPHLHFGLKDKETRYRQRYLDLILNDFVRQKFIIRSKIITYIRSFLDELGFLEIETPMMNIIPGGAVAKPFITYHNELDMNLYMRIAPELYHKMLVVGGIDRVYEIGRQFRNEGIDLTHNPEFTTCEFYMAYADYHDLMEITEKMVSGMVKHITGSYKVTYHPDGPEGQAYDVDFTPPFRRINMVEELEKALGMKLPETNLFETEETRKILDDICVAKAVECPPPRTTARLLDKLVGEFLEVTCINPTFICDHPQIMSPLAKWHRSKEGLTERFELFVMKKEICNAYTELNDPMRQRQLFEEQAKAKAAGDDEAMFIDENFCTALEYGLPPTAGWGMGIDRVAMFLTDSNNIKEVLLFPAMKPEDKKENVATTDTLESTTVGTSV

binding result: binds
B1: syntenin-1, endogenous in HCT116 cells (other)
chain: SLYPSLEDLKVDKVIQAQTAFSANPANPAILSEASAPIPHDGNLYPRLYPELSQYMGLSLNEEEIRANVAVVSGAPLQGQLVARPSSINYMVAPVTGNDVGIRRAEIKQGIREVILCKDQDGKIGLRLKSIDNGIFVQLVQANSPASLVGLRFGDQVLQINGENCAGWSSDKAHKVLKQAFGEKITMTIRDRPFERTITMHKDSTGHVGFIFKNGKITSIVKDSSAARNGLLTEHNICEINGQNVIGLKDSQIADILSTSGTVVTITIMPAFIFEHIIKRMAPSIMKSLMDHTIPEV
